Where two headings read alike, the source gives them in different places.

Experiment [1] concerns the target T1, CXCL1_HUMAN (Homo sapiens, UniProt P09341).
T1 sequence (P09341 35-107): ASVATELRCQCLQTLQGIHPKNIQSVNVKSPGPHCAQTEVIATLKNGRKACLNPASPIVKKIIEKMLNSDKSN
To be noted: read-out: Kd, CXCL1_HUMAN, previously described evasins; data obtained from publications [20-22,32]; cited from earlier work.

Experiment [2] has as its target T2, CXCL8_HUMAN (Homo sapiens, UniProt P10145).
T2 sequence (P10145 21-99): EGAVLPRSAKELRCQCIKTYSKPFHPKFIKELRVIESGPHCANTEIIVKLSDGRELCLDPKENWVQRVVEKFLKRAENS
The note with it: read-out: Kd, CXCL8_HUMAN, previously described evasins; data obtained from publications [20-22,32]; cited from earlier work.

The subject of another experiment is chemokines. To be noted: list of chemokines bound, from the literature [18,20-22]; cited from earlier work.
Another experiment addresses T3, CCL25_HUMAN (Homo sapiens, UniProt O15444).
T3 sequence (O15444 24-150): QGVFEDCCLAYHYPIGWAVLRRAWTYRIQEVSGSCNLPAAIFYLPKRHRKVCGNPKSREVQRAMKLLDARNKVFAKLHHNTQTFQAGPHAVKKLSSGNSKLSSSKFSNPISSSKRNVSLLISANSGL
The experiment can be described thus: Yeast surface display (YSD) FACS binding. A digest of the protocol:
(§1)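 Yeast clones displaying tick peptides were re-tested by FACS with labelled chemokine. Binding = % of peptide-expressing yeast above a background threshold set with streptavidin-Alexa647 alone; the mean percent shift was used where several clones were isolated. Confirmed binding ("YES") required >3-fold over background mean fluorescence intensity.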

Another experiment has as its target T4, CCL5_HUMAN (Homo sapiens, UniProt P13501).
T4 sequence (P13501 24-91): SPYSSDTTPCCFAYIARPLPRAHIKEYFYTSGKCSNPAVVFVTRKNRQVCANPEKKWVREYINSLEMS
Description: Yeast surface display (YSD) FACS binding. A digest of the protocol:
as §1
On the technique in general: In flow cytometry, cells or beads pass a laser one at a time.

For the next experiment, the target named is T5, CCL19_HUMAN (Homo sapiens, UniProt Q99731).
T5 sequence (Q99731 22-98): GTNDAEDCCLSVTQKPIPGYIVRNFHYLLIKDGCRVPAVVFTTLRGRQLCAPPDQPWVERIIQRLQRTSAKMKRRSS
The experiment can be described thus: Yeast surface display (YSD) FACS binding. A digest of the protocol: as §1

In another experiment the target is T6, CCL15_HUMAN (Homo sapiens, UniProt Q16663).
T6 sequence (Q16663 22-113): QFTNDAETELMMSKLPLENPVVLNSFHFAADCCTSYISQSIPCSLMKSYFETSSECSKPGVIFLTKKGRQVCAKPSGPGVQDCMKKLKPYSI
The experiment can be described thus: Yeast surface display (YSD) FACS binding. A digest of the protocol: as §1

The next experiment addresses T7, CXCL3_HUMAN (Homo sapiens, UniProt P19876).
T7 sequence (P19876 35-107): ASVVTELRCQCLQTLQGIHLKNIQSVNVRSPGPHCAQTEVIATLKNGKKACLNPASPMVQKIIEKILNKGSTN
Description: Biolayer interferometry (BLI) binding. A digest of the protocol: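 His-tagged purified tick CKBPs were loaded on Ni-NTA sensors and screened against chemokine at 300 nM. Chemokines that bound in this screen were retested at several concentrations. Association, equilibrium and dissociation curves were fitted to give Kd in molar units.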

Experiment [3] has as its target T2, CXCL8_HUMAN. The experiment can be described thus: Biolayer interferometry (BLI) binding. The arrangement: label (chemical). Here is the method: (§2) Table 1. Tick CKBPs described in PCT/GB2017/050563 and [17]. Tick peptide sequences isolated in yeast surface display fluorescent-activated cell sorting (FACS) screens using a labelled chemokine. Identity with Evasin-1, 4 or 3 was calculated using BLAST. Abbreviations: IXORI—Ixodes ricinus, RHISA—Rhipicephalus sanguineus, AMBMA—Amblyomma maculatum, AMBPA—Amblyomma parvum, AMBTR—Amblyomma triste, AMBAM—Amblyomma americanum, AMBCA—Amblyomma cajennense, RHIPU—Rhipicephalus pulchellus. Table 2A-C. Binding characteristics of tick CKBPs previously disclosed (PCT/GB2017/050563 and [17]). All members of the human chemokine family[164] are listed in column 1. Binding to human chemokines was determined for 14 tick CKBPs using biolayer interferometry (BLI) with calculated Kd shown as Molar (Moles/Litre). […] Association, equilibrium and dissociation data were analysed using Octet software to create corresponding fitted curves, and used to calculate Kd. For yeast surface display, (YSD) background fluorescence was controlled for by using either an empty vector or by omitting the chemokine (i.e. using streptavidin-Alexa647 alone). An arbitrary threshold of >3 fold over background mean fluorescence intensity was chosen to describe confirmed re-tests. Where binding was detected data are indicated as “YES”. […] Data was analysed using GraphPad Prism to determine IC50, which is shown as Molar (Moles/Litre). […]
A general note: BLI is a label-free optical method that tracks binding on a fibre tip over time.

For experiment [4], the target named is T1, CXCL1_HUMAN. The experiment can be described thus: Biolayer interferometry (BLI) binding. Further details: label (chemical). Here is the method: as §2
A further experiment addresses T8, CCL4_HUMAN (Homo sapiens, UniProt P13236).
T8 sequence (P13236 24-92): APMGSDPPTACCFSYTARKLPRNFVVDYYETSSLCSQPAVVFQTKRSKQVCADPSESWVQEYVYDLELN
Description: Yeast surface display (YSD) FACS binding. A digest of the protocol:
as §1

B1: EVASIN3: previously described tick CKBP evasin 3, from Rhipicephalus sanguineus (protein, listed as Rhipicephalus sanguineus)
chain: LVSTIESRTSGDGADNFDVVSCNKNCTSGQNECPEGCFCGLLGQNKKGHCYKIIGNLSGEPPVVRR
Consider B1, for which the figures for the dissociation constant Kd with CXCL1_HUMAN [1] and in the experiment with CXCL8_HUMAN [2] were 0.85 nM and 0.43 nM, respectively. In the experiment with chemokines, the “Previously described chemokine binding” value was “CXCL1, CXCL8”.

B2: P1006_AMBCA: tick CKBP, Amblyomma cajennense (protein)
chain: DTIGGIPGCGDPATTSAPEDQPKHYAVRTDKNGCKVMVIGTWMTKEDHNLLPPYISKERAPSGKVQLPASCKKNCHGKLKNLPNGTPCREVFGDLRRRRKHIKDGCKVGKCQNGLCVSEERIISCYLPPNITDPRPTHGPLAE
modifications: Amblyomma cajennense
Consider B2, for which, in the experiment with CCL25_HUMAN, the “Binding to CCL25_HUMAN, YSD” value is given as “YES (An arbitrary threshold of >3 fold over background mean fluorescence intensity was chosen to describe confirmed re-tests. Where binding was detected data are indicated as “YES”)”. In addition, the “Binding to CCL5_HUMAN, YSD” value with CCL5_HUMAN is “YES (An arbitrary threshold of >3 fold over background mean fluorescence intensity was chosen to describe confirmed re-tests. Where binding was detected data are indicated as “YES”)”. Further, the “Binding to CCL19_HUMAN, YSD” value in the experiment with CCL19_HUMAN was “YES (An arbitrary threshold of >3 fold over background mean fluorescence intensity was chosen to describe confirmed re-tests. Where binding was detected data are indicated as “YES”)”. In addition, the “Binding to CCL15_HUMAN, YSD” value with CCL15_HUMAN is listed as “YES (An arbitrary threshold of >3 fold over background mean fluorescence intensity was chosen to describe confirmed re-tests. Where binding was detected data are indicated as “YES”)”.

B3: P1156_IXORI: tick CKBP, Ixodes ricinus (protein, listed as Ixodes ricinus)
chain: ADDDNELFTVQYCGMNCTKDEGGTWTGCTGKKEGCKCYHESGKNYGLCLSTEYTDFSQYGNPSDSEIEAAKPKRSDTLSH
With B3, the values for the Kd in the experiment with CXCL3_HUMAN, with CXCL8_HUMAN [3] and with CXCL1_HUMAN [4] were 81 nM, 4.6 nM and 3.25 nM, respectively.

B4: P1014_AMBCA: tick CKBP, Amblyomma cajennense (protein)
chain: DIIGGIPGCGDPTTTSAPEVPPKHFAVRTDKDGCTLMIIGTWMTTEDHNRLPPDIGEKRAPYGRVQLPASCKKNCHGKVKNLPNGTPCREVFGDPRRGRKHIKNGCTVGKCQSGLCVTDKRIISCYIPPNITDPIPTHGPWAE
modifications: Amblyomma cajennense
For the molecule B4, in the experiment with CCL4_HUMAN, the “Binding to CCL4_HUMAN, YSD” value is on record as “YES (An arbitrary threshold of >3 fold over background mean fluorescence intensity was chosen to describe confirmed re-tests. Where binding was detected data are indicated as “YES”)”.

The record behind these values is patent US20200247855A1, “THERAPY AND DIAGNOSTICS” (OXFORD UNIVERSITY INNOVATION LIMITED, priority 2017, published 2020).
